Assay [1] can be described thus: DNA shuffling libraries: 14CO2 capturing assay in 384-well format, fold activity of backbone (Megatable 2). The note with it: relative to backbone SEQ ID NO: 133 (DDEC0201).
Assay [2] in a line: Saturation mutagenesis of SEQ ID NO:109: dicamba decarboxylation activity of point mutants (CO2 released), fold of backbone (Tables 7, 8, Megatable 1). The settings on record: decarboxylation activity (CO2 released) of point mutant vs unmutated backbone protein; backbone SEQ ID NO: 109.

B1: 133 (protein)
chain: MAQGKVALEEHFAIPETLQDSAGFVPGDYWKELQHRLLDIQDTRLKLMDAHGIETMILSLAAPAVQAIPDRRKAIEIARRANDFLAEECAKRPDRFLAFAALPLQDPDAATEELQRCVNDLGFVGALVNGFSQEGDGQTPLYYDLPQYRPFWGEVEKLDVPFYLHPRNPLPQDSRIYDGHPWLLGPTWAFAQETAVHALRLMASGLFDEHPRLNIILGHMGEGLPYMMYRIDHRIAWVKLPPRYPAKRRFMDYFNENFHITTSGNFRTQTLIDAILEIGADRILFSTDWPFENIDHAADWFNATSIAEADRVKIGRTNARRLFKLDGA
modifications: Dicamba decarboxylase variant
As for B1, the “Fold Activity” value in assay [1] is recorded as 1.0 fold; in assay [2], 1.3 fold.

B2: 136 (protein)
chain: MAQGKVALEEHFAIPETLQDSAGFVPGDYWKELQHRLLDIQDTRLKLMDAHGIETMILSLAAPAVQAIPDRRKAIEIARRANDFLAEECAKRPDRFLAFAALPLQDPDAATEELQRCVNTLGFVGALVNGFSVEGDGQTPLYYDLPQYRPFWGEVEKLDVPFYLHPRNPLPQDSRIYDGHPWLLGPTWAFAQETAVHALRLMASGLFDEHPRLNIILGHLGEGLPYMMYRIDHRIAWVHEPPRYPAKRRFMDYFNENFHITTSGNFRTQTLIDAILEIGADRILFSTDWPFENIDHAADWFNATSIAEADRVKIGRTNARRLFKLDGA
modifications: Dicamba decarboxylase variant
Consider B2, for which the “Fold Activity” value in assay [1] was 1.4 fold; in assay [2] it was 1.2 fold.

B3: 135 (protein)
chain: MAQGKVALEEHFAIPETLQDSAGFVPGDYWKELQHRLLDIQDTRLRLMDAHGIETMILSLAAPAVQAIPDRRKAIEIARRANDFLAEECAKRPDRFLAFAALPLQDPDAATEELQRCVNDLGFVGALVNGFSVEGDGQTPLYYDLPQYRPFWGEVEKLDVPFYLHPRNPLPQDSRIYDGHPWLLGPTWAFAQETAVHALRLMASGLFDEHPRLNIILGHLGEGLPYMMYRIDHRIAWVKLPPRYPAKRRFMDYFLENFHITTSGNFRTQTLIDAILEIGADRILFSTDWPFENIDHAADWFNATSIAEADRVKIGRTNARRLFKLDGD
modifications: Dicamba decarboxylase variant
For the molecule B3, the “Fold Activity” value in assay [1] came out at 1.3 fold; in assay [2], 1.5 fold.

B4: 134 (protein)
chain: MAQGKVALEEHFAIPETLQDSAGFVPGDYWKELQHRLLDIQDTRLKLMDAHGIETMILSLAAPAVQAIPDRRKAIEIARRANDMLAEECAKRPDRFLAFAALPLQDPDAATEELQRCVNDLGFVGALVNGFSQEGDGQTPLYYDLPQYRPFWGEVEKLDVPFYLHPRNPLPQDSRIYDGHPWLLGPTWAFAQETAVHALRLMASGLFDEHPRLNIILGHLGEGLPYMMYRIDHRIAWVHEPPRYPAKRRLMDYFNENFHITTSGNFRTQTLIDAILEIGADRILFSTDWPFENIDHAADWFNATSIAEADRVKIGRTNARRLFKLDGA
modifications: Dicamba decarboxylase variant
In the case of B4, the “Fold Activity” value is recorded as 1.1 fold in assay [1] and 1.5 fold in assay [2].

B5: 137 (protein)
chain: MAQGKVALEEHFAIPETLQDSAGFVPGDYWKELQHRLLDIQDTRLKLMDAHGIETMILSLAAPAVQAIPDRRKAIEIARRANDFLAEECAKRPDRFLAFAALPLQDPDAATEELQRCVNTLGFVGALVNGFSQEGDGQTPLYYDLPQYRPFWGEVEKLDVPFYLHPRNPLPQDSRIYDGHPWLLGPTWAFAQETAVHALRLMASGLFDEHPRLNIILGHMGEGLPYMMYRIDHRIAWVHEPPRYPAKRRFMDYFNENFHITTSGNFRTQTLIDAILEIGADRILFSTDWPFENIDHAADWFNATSIAEADRLKIGRTNARRLFKLDGA
modifications: Dicamba decarboxylase variant
Turning to B5, the figures for the “Fold Activity” value in assay [1] and in assay [2] were 1.4 fold and 1.1 fold, respectively.

B6: 88 (protein, listed as Starkeya novella)
chain: MARKIALEEHFTTPELAGKYVARPTQSDALFADIERRLADFDELRLEMMDRAEIDLMVLSVTTPGVQGVRDTGEAIRLARGANDFLAREVQKRPSRYAGFAHLAMQDAEAAATELERAVRELGFRGALINGQTNGHYLDEDQYAPFWERVQELDVPVYLHPGNMADSPAMFAHRPELGGPIWAWTAETAAHALRLVFGGTFTRFPGAKVILGHMGETLPFLLWRLDSRREFDLGEKLAPDALPSAIIKRNIAVTTSGVCDPAPLVAALQALSDDNVMFSVDYPYEDPQLASKFIETAPIGEETRAKVCHGNAERLLGL
Consider B6, for which the “Fold Activity” value in assay [2] came to 1.3 fold.

B7: 89 (protein, listed as Erwinia billingiae)
chain: MATNRRDFLKNATAVMAGSTVFAGSSHFASAAAVEPAAVQPPRRIIALEEHFMLPEFVGYLHETQQNLRNGLVDKVVTPLSDFGKGRLEIMDKNGVDFAVLSLSGPGVQAEPDRVKAVRLARYANDKLATEMQKNPRRYGGFAHLAMQDPLAAANELERCVKQLHMQGGMINGETDGLYLDDRRYDVFWERVEALNVPIYIHPGNPPDYPHMFAGHPEMWGPVWSWAVETCSHALRLIFSGTFDRYPGARVILGHMGETLPIQLWRLDSRYQIANQTFAIKHPPSWYAKKNITITTSGVCNDAALRCALDSMGSENVMFSIDYPFESTEIAVNWLKTANITEQERNAVAWGNATSILRLGA
In the case of B7, the “Fold Activity” value in assay [2] turned out to be 3.1 fold.

B8: 93 (protein, listed as Mucilaginibacter paludis)
chain: MAKYGKHITINKNMRIVTLEEHISFPEMADQIPKAALGSFGRSEAMQRIAPKLADITGERLKSMDANGISMQVLSVDSSGVNLLSPQQGPAFATQYNDLIANRIAGFEKRFTAFAHLPMTAPFAAADELERAVKEHHFCGAMIRGLTGDQFLDHPQFAPIFERAQKLDVPIYLHPGLPPKGVADIYYSGLPNYSGMAEALACYGWGWHSETALHVLRLLFSGIFDQYPKLKLVIGHMGEMLPMMMARSEKAFKPGNGGANVRTLTDTFRSQVYLTTSGFFTQPPLKIALDTFGIDHVMFSVDYPFSTNEMGIEFLNEIDLPDEEVARIAHGNADKLLNLKA
In the case of B8, the “Fold Activity” value in assay [2] came out at 1.6 fold.

B9: 87 (protein, listed as Novosphingobium sp.)
chain: MASDIATAADLQTGGRQGYLRIATEEAFATRDQIDVYLRMVRDGTADRGMTSLWGFYAQSPSARATQIIERLLDLGEQRLADMDAAGIDKAVLALTSPGVQPLLDMEEARRIAGNANDRLAERCAAHPDRFIGMTAVAPQDPQWSAREILRGATQLGFKGVQINSHTQGRYLDEPFFDPIFRALGDVGQPLYIHPGTPPDSMIGPLLDAGLDGAIYGFGVETGMHLLRLITAGIFDRYPDLQIMVGHMGEALPYWLYRLDYMHQAGIRSQRYERMRPLKRTIAGYFRSNVLVTCSGMAWEPAIQFARQVMGEDRVMYAMDYPYQYEADEVRALDVMDLSPESKRKFFQTNAERWFDL
For the molecule B9, the “Fold Activity” value in assay [2] came out at 1.4 fold.

B10: 94 (protein, listed as Bacillus thuringiensis)
chain: MANRGDSNMKSLVGVIMGSTSDWETMKYACDILDELNIPYEKKVVSAHRTPDYMFEYAETARERGLKVIIAGAGGAAHLPGMVAAKTNLPVIGVPVQSKALNGLDSLLSIVQMPGGVPVATVAIGKAGSTNAGLLAAQILGSFHDDIHDALELRREAIEKDVREGSELV
As for B10, the “Fold Activity” value in assay [2] is given as 1.5 fold.

B11: 92 (protein, listed as Chitinophaga pinensis)
chain: MARIVTLEEHVSFPEMTALLPEEILKNRKQSGAALQMQEKLADITGERLTSMKAAGISMQVLSVENTDVYLLPDSLAPAFAAKYNDLLADKISSHSDAFAAFAMLPMTVPEAAADELERAVKTHGFCGAMIKGLINGVFLDAPKFAPVFACAEKLGVPLYIHPGIPPKEVIDAYYSNVGDTKGPNEAIACYGWGWHSETAIHILRLLAAGIFDKYPQLNIIIGHMGEMLPMMWERSNRVFQPGNNGKNQRTLIETFRKQLYITTSGIFTQPPLQIAIDTIGIDNILFSIDYPFSSNQMGIDFLTKAALPAEQLAKMAHGNADRILKF
For the molecule B11, in assay [2], the “Fold Activity” value was found to be 1.7 fold.

B12: 91 (protein, listed as Botryotinia fuckeliana)
chain: MASFVCNFGKAALATLLLTPSISAADYTPQETVLNSGRPTFYDASTSIPGKIALEEHVGNDLLNGLYTVPYYPNTNEPQYSDSVYIADVGEKMLDIPSRIANMDAANISISVLTFGGPGIQGVFNATYATYAAGYVNDYLYKNYKNNANYTGRFEFWCSNALQEPSKAATELERCVKELGGVGSFVGGYTNNGGINGTANDIVYLDDPSMEPFLEKVVELDVPIYLHPRMPAPSQLLSVKGYEFLGSSPWGFSSETGAHALRLMVSGTLDKYPTLKIVLGHCGEGLPFFLPRIDQRLRHFKKELFNNTLTMEEYWLRNFYVTTAGVQDAGTLVDTIKRTGEDRVMFSVDYPFEDTVEIAGWFDRLEMNTLTKTKLAYENAKALLKLTCYVDAEKRPRIFNKHHVDDIIKHTHSPCIWTLFH
As to B12, in assay [2], the “Fold Activity” value worked out at 1.6 fold.

B13: 90 (protein)
chain: MAATIDRVLYLGNATQRRYTSATVSVPRIFGKVALEEHVGTSIWAKYNLTPPANAVVGVLNRPPTLPNTLDTIARLDDINGRLSSMNHSGIGYVIVSLSSPGIQGVHDTALAIKFSTDINDELYLKYANAYPDKFAFFATVPMQDPVAAASELERAVSLLGAKGAAINGYTDIGPPGNSTTRYLDDPINAPFWSKVAALNVPIYLHPRAPPPSQQLVYNYPNNSLSAYPGLVTGGFAYGAETAVHALRLMLSGLFDTHPNIQIILGHAAEGLPFLIHRSDTQLAAEVPGTNGPYKRPLRYYLRNNFYATLSGVRRLSTTQCTLAEMGEERVLFSVDYPFQSNEDAADWFDGVEGMSVETKRKVARGNARRLFNLTVDLDERQIDGDFM
modifications: Pyrenophora tritici-repentis
In the case of B13, the “Fold Activity” value in assay [2] came out at 1.7 fold.

B14: 5 (protein, listed as Staphylococcus aureus)
chain: MAQNNMEANQMKSITFEEHYVIEDIQKETMNAISADPKGVPMKVMLEGLEKKTGFTNADELSHHDERIQFMNNQDVQIQVLSYGNGSPSNLVGQKAIELCQKANDQLANYIAQYPNRFVGFATLPINEPEAAAREFERCINDLGFKGALIMGRAQDGFLDQDKYDIIFKTAENLGVPIYLHPAPVNSDIYQSYYKGNYPEVTAATFACFGYGWHIDVGIHAIHLVLSGIFDRYPKLNMIIGHWGEFIPFFLERMDEALFAEHLNHPVSYYFKNNFYITPSGMLTKPQFDLVKKEAGIDRILYAADYPYIEPEKLGVFLDELGLTDEEKEKISYTNGAKLLGLSSNN
For B14, the “Fold Activity” value in assay [2] is listed as 0.8 fold.

The values above are taken from patent US20160040149A1, “Compositions Having Dicamba Decarboxylase Activity and Methods of Use” (priority 2013, published 2016).
